Laboratory results: the DeepSol protein solubility set

Assay: soluble on expression in E. coli; label from the status in PepcDB or PDB records

**Q.** Which “soluble on expression in E. coli” value does the source give for “MVESLKHTAAAAIAKLIHNGHFNSKSYAFDQESSNEVYAQLLRLDPQWSYNIDLKLKGLSFILTKVNFENVEMGPQTFGLLTQHNLKSLVLGNQDEIPSLEHYMSRLFRTSQIDHLDLSGRSQFSTAWLKTTGQQLPLLRTLNVSGVKLLNPDFFQFCKSFPNLYSLDISNCGVTILTGISRLKNLRHLSLRSLIYESWYDIRELFALKLLNVLDLSMHSTHHARRNMQRFLDCKQVLPELRFLECSGNLMDEDMLEELLITHSHLHQLAIVDCDVKAPKSSPIRILSCTTFDSSITALKYYLNLKRRNEVQICFQELRLHVKRLHERKMQYDVTECVTLSLQSLEKLPCSLIMNFDIVEERLFTSRLSFEADFLAEIVLHNFHRLSRVHTRLICDILLNNVNRQLIRDLRAETMWNAIIYLFNMGVFVDKQKLKGIASHCAASLHNGDPIIEEQAMRILTSCVTGKTLELVLSITESKHDTTPICLGFLRAALHKEDEQSSRRVAEKILAATHNNEEECKRYIKHGAMNMLISAIDRFDSEPMHIVILGIIRNLVMMSPYDKVQQIFTCVQFRTFQILLRNWTSSDRAYLMLSIFALRLNHQDKNFECVFRKCADELLRKHFPYLLATEITVDVDIYFDRGIVQNILRTSEEVGLVLWALLTIKIYAQKSLWNSRSIRDSNFFYLIENPHIASEVVNVASENVRFLFHW” here?
**A.** Its value is “not soluble”.

**Q.** Which “soluble on expression in E. coli” value does the source give for “MGSDKIHHHHHHMEPKYTSFDKSAKTCIRQQVITEDLSWAHYQNAGERLYYQNDTQHTLSMYLDGGYETHRTDIKADYGAPSKFCLMPQGCQSHWQLGQPQQFMHLYFSDEHLKKLAVRVFDKDPRQVRLPELTFVDNPRLEALFRHQVAGLNWQTSDNHLMMEQVTDTVLVTLLQSSGFNLSVGPIKGGLAPKVAKAIKEFIYCHSHRQIYLSELAEIAQLSEYHFCRMFKCQFAMTPQEYLLQVRIEKVKQSLSHSTQSLTDIALNNGFANQSHMGRYFKKLSGMSPGEYQKHHQGR” here?
**A.** Its value is “not soluble”.

**Q.** For “SSAEVKVTGQNQEQFLLLAKSAKGAALATLIHQVLEAPGVYVFGELLDMPNVRELAESDFASTFRLLTVFAYGTYADYLAEARNLPPLTEAQKNKLRHLSVVTLAAKVKCIPYAVLLEALALRNVRQLEDLVIEAVYADVLRGSLDQRNQRLEVDYSIGRDIQRQDLSAIARTLQEWCVGCEVVLSGIEEQVSRANQHKEQQLGLKQQIESEVANLKKTIKVTTAAAAAATSQDPEQHLTELREPAPGTNQRQPSKKASKGKGLRGSAKIWSKSN”, which “soluble on expression in E. coli” value is on record?
**A.** The value was “soluble”.

**Q.** With “MNNPKPCEWKSNELSRGYIADYKAFNFVDGEGVRCSLYVSGCPFHCEGCYNKAAQSFKYGKPYTKELEDDILKDIGHESVQGLTLLGGEPFLNTATCLSVVKRIRATYGKTKDIWSWTGYTWDEMMQETTDKLELLSLIDVLVDGRFEQKLFDPNLAFRGSSNQRIIDVQKSLAADEVVLYELLEHHHHHH” as the sequence, how does the “soluble on expression in E. coli” value read?
**A.** Its value is “soluble”.

**Q.** With “MSLKGLTVGFLPKAVNNPYFTSADKGGEKALEELGSSYKEVGPSSATDTSGQVSYVNTLTQQQVDAMAVSAQDPGALCTALKQAMKNGIEVVTYDSDTKTGCRNAFVSQASAEDLGRTEVQLLAEQIGYKGEIAILSAAQTATNQNTWIGFMKDELKDPKYKNVKLVKVAYGNDDAQQSFQQTQGLLQEHPKLAGIISPTTVGIKAAAQYLSGSKYKGKVKLTGLGTPNDMRKYVKNGTVEGFELWDPAKLGELAARTAVALSSGQISGKEGETFKAGDMGSYTIGKDGEGHHHHHH” as the sequence, how does the “soluble on expression in E. coli” value read?
**A.** Its value is “soluble”.

**Q.** Which “soluble on expression in E. coli” value does the source give for “MLEDPGGRPRVYVDVREERSPVPSILESLGVQVIPKQLPMGDYLVSDSIIVERKTSSDFAKSLFDGRLFEQASRLAEHYETVFIIVEGPPVPRRYRGRERSLYAAMAALQLDYGIRLMNTMDPKGTALVIESLARLSTREGGQRIVIHKKPRLSDVREWQLYILQSFPGIGRRTAERILERFGSLERFFTASKAEISKVEGIGEKRAEEIKKILMTPYK” here?
**A.** Its value is “soluble”.

**Q.** With “MTGSQFPREELFAPGHRGCAGCGAAIVARLALKAAGKNTIVANATGCLEVMTTPYPETAWRVPWIHVAFENAAAVASGIEGAVVALKRKKGKYGEEKVNVIAFGGDGGTADIGFQALSGAMERGHDMVYIMYDNEAYMNTGVQRSGSTPFMASTTTSPAGSHIRGENRPKKDMPMIMAAHGIPYIATASISYPEDFMNKVKKACEVNGPAFIQVLQPCTTGWGYPAENTVEMGRLAVETGVWPLFEIENGEFKLNYKPLKRKPIEEYLKVQKRYRHLKPEDISVIQETIDMKCDEYGL” as the sequence, how does the “soluble on expression in E. coli” value read?
**A.** The value was “not soluble”.

**Q.** For “MSGLVLGQRDEPAGHRLSQEEILGSTKVVSQGLEALHSEHQAVLQSLSHTIECLQQGGHEEGLVHEKARQLRRSMENIELGLSEAQVMLALASHLSTVESEKQKLRAQVRRLCQENQWLRDELAGTQQRLQRSEQAVAQLEEEKKHLEFLRQLRQYDEDGHGMEEKEGEATKDSLDDLFPNEEEEDSGNDLSRGQGAAAAQQGGYEIPARLRTLHNLVIQYAAQGRYEVAVPLCKQALEDLERTSGRGHPDVATMLNILALVYRDQNKYKEAAHLLNDALSIRESTLGRDHPAVAATLNNLALLSVWGWPTGLPCPGLFYPLLPHYRSTYFTVSLINEPGNI”, which “soluble on expression in E. coli” value is on record?
**A.** Its value is “soluble”.

**Q.** With “MGSDKIHHHHHHLTNQMVYVYKDGKQVVSSQCVTGCIAKGHGTPTGVYSIFSMDKDRYLRGDGYKSWVNFFVPFNGGIGFHDASWRSTFGGNIYLYSGSHGCINMPYSEVKKLFANVSMGETVIVYGGATSVDGKEQSFTGQDAYSVTEGDASFNLGVTAQDNAKLTYVSDNEWVAKVDESGNVTPVGVGTATITVKSEATAGYRAGTKTITVTVNAKAQPQVQPQKPAQQQPQKPAQQQQPQKPAAKKDASVNVSESDVSLEINGTKKINISVSSDTGATVEVESGDASVATLDSNGNIVAKNEGQVTYKVYTKATGSYNASNVSYVTIKVSKPAEPDDSGADADRE” as the sequence, how does the “soluble on expression in E. coli” value read?
**A.** Its value is “not soluble”.

**Q.** Which “soluble on expression in E. coli” value does the source give for “GMRLPLNQRVAILLHEGTTGTIGKTGLALLRYSEAPIVAVIDRNCAGQSLREITGIYRYVPIVKSVEAALEYKPQVLVIGIAPKGGGIPDDYWIELKTALQAGMSLVNGLHTPLANIPDLNALLQPGQLIWDVRKEPANLDVASGAARTLPCRRVLTVGTDMAIGKMSTSLELHWAAKLRGWRSKFLATGQTGVMLEGDGVALDAVRVDFAAGAVEQMVMRYGKNYDILHIEGQGSLLHPGSTATLPLIRGSQPTQLVLVHRAGQTHNGNNPHVPIPPLPEVIRLYETVASGGGAFGTVPVVGIALNTAHLDEYAAKEAIAHTIAETGLPCTDVVRFGADVLLDAVMQN” here?
**A.** Its value is “soluble”.

**Q.** Which “soluble on expression in E. coli” value does the source give for “LLDVMMDIFRRRELDLPCDGGAPQAPRPLKDHPRTPTDRGDADPRDAASHGLGTDRFPDLPTPEQDPRHPYRPGSQTLRPLRPLRPLRPLRPHGR” here?
**A.** The value was “not soluble”.

**Q.** For “MDNARIDLRSKYYVKPKADHPWLTRRTQSHQQVKPPKLPKKKPDPDKKD”, which “soluble on expression in E. coli” value is on record?
**A.** The value was “not soluble”.

**Q.** Which “soluble on expression in E. coli” value does the source give for “GSEQKKRRLEEGTRANSVAESSPPFPLRSKTSVGSTNSQITETKNKQGVYPITESNLRILEGEDRSEKAKELLKKYVSNVFENEKTLYIYCKYVMLHYGKDLVNPNEVDSLEFQIINGGITNILIKVKDMSKQAKYLIRLYGPKTDEIINREREKKISCILYNKNIAKKIYVFFTNGRIEEFMDGYALSREDIKNPKFQKLIAKNLKLLHDIKLNENLYKELQVTQKVPGTRPSFLWNTIWKYFHLLNEERKKICSFDAKANILKLIDFDVLRDSIVEVESLCKRENSPIVLCHCDLLSSNIINTVGGGEAGELGEAGETGEGGETGEGGETGEGGETGEGGEGDSISFIDFEYSCPMERAYDIANHFNEYAGFNCDWDLTPSKEEEYHFIMHYLGTDDEELINQLIREIQPFYICSHINWGLWSLLQGMHSSIDFDFINYGMTRLTASCLPIFRSKV” here?
**A.** Its value is “soluble”.

**Q.** With “MSLNGSSIIEFEDMTWSQQVEDSKKPVVVMFYSPACPYCKAMEPYFEEYAKEYGSSAVFGRINIATNPWTAEKYGVQGTPTFKFFCHGRPVWEQVGQIYPSILKNAVRDMLQHGEECIRKSTPVGQDITGYVEGHHHHHH” as the sequence, how does the “soluble on expression in E. coli” value read?
**A.** The value was “soluble”.

**Q.** Which “soluble on expression in E. coli” value does the source give for “MTVSGPGTPEPRPATPGASSVEQLRKEGNELFKCGDYGGALAAYTQALGLDATPQDQAVLHRNRAACHLKLEDYDKAETEASKAIEKDGGDVKALYRRSQALEKLGRLDQAVLDLQRCVSLEPKNKVFQEALRNI” here?
**A.** Its value is “soluble”.

**Q.** For “MKQEVEKWRPFKHPDGDVRDLSFLDAHQVIYVQHHEDKEPLEYRFWVTYSLHCFTKDYEHQTNEEKLSLMYHAPKESRPFCQHRYNLARTHLKRTILALPESNVIHAGYGSYAVIEVDLDGGDKAFYFVVFRAFSEIFHHCLKLIEK”, which “soluble on expression in E. coli” value is on record?
**A.** Its value is “not soluble”.

**Q.** For “MTAYGFIIPVFNHPHYLDQLVETLSRYQLPMILVNDGSNEECSTKLRVLDQSYTQVHLVEHAYNQGKGQAVITGLHYADQLGLSHALQIDCDGQHQWADVEQFLQLSQQYPEKVIIGQPIFDASIPKKRLYGRYLTHVWVWINSLSFEIKDSMCGFRVYPLGPTLKVIKQAKFQPRMGFDSEILVRLKWENLAFINVPTAVIYPEHGILEHHHHHH”, which “soluble on expression in E. coli” value is on record?
**A.** Its value is “not soluble”.

**Q.** Which “soluble on expression in E. coli” value does the source give for “MKYTIEEIRQMQEGQTFDCKSILIEPKHLATIIVAMANADGGMIAVGISDKTRRIEGVNQDKEHLNDILRTPLDFCVPSVSVTTDYVPCTDAEGRDNRVLLMHIPASPRLHANQADEVFWRVGDKSRKLTFDERLQLMYDKGERYYEDSTAYDATLDDIDMDAVKAYMKRIGYGKSAMEYLQENKGFVTYKGDVPQVSAACILLFGKHPQTFFPRARVRFIKYFGTEEKVGREMNVIKDVTFDGRILEQIQKTVEYLETQVKEHSYLGEDGIFKTDREYPKFVIQEMVVNSVCHRDYSIKGTEIQIKMFDDRLVFETPGKLPGIVRTDNIRHTHFSRNPKIAEFLKAYDYVKEFGEGVDRMCRELSALGVKEPQYNLVAFIMKATVCAKVLEERQGTNHFDQKRPESDQKSDQMRIILELIKSNPNISRTELSEKTGLHDSSVKRRLKTLVDEGLIQRVGPDKGGQWKVIGSLLEHHHHHH” here?
**A.** The value was “soluble”.

**Q.** With “MSDITLREAQKSVDQWIKTLGIRYFNELTNMAILTEEVGEVARIIARRYGEQSEKESDKSKDLADEMADVLWVLLCLANQTGVDLTTAFHKNIEKKTVRDKERHQQNTKLHNNGSK” as the sequence, how does the “soluble on expression in E. coli” value read?
**A.** The value was “soluble”.

**Q.** With “MGSDKIHHHHHHMEQLLHYVWKHKIFPLHELQTTTGLPVEVIDTGLPNSDSGPDFFNAKLKIGGTLWVGNVEIHTASSDWFRHGHDRDIAYDSVILHIVTEIDCEIYRSNGEPVPQLRLPCPEQVKEHYDELCRADIHPPCYSILETLPKLTIHSWLTALQTERFDQKNRTITRRLQRCNQHWEDAFFITLARNFGFGLNGDAFETWANLLSFRAIDKHRDDLTQVEAFFFGQAGLLEGESADDYFSWMQKEFRYLQHKFELPPVMNPSLWRFLRLRPGNFPHVRLAQLASLYYRERSLFSRVMEAETLKDLKHIFAGHTSAYWEEHFMFGKSSPRREKSIGAGAKELIIINTVIPFLYAYGLHKADERLCERAASLLEELKAENNYVTRMWSGAGIPVQTAADSQALLQLQKEYCDKKKCLYCRFGYEYLRHK” as the sequence, how does the “soluble on expression in E. coli” value read?
**A.** The value was “not soluble”.

**Q.** For “IVGGYTCQENSVPYQVSLNSGYHFCGGSLINDQWVVSAAHCYKSRIQVRLGEHNINVLEGDEQFVNAAKIIKHPNFDRKTLNNNIMLIKLSSPVKLNARVATVALPSSCAPAGTQCLISGWGNTLSSGVNEPDLLQCLDAPLLPQADCEASYPGKITDNMVCVGFLEGGKDSCQGDSGGPVVCNGELQGIVSWGYGCALPDNPGVYTKVCNYVDWIQDTIAAN”, which “soluble on expression in E. coli” value is on record?
**A.** Its value is “soluble”.
